# Where no end group is shown, it is not given here.
# Key:
# [1] = target: T1, mCherry-KPNB1 (Homo sapiens (Human), UniProt Q14974 1-876); test: co-IP with mCherry-KPNB1, western blot
# T1 construct: mCherry was cloned into GFP-KPNB1; also called mCherry-tagged KPNB1; not shown: mCherry tag (mCherry-C1, Clontech)
# Source text: FIG. 30B) Lysates from HEK293T cells co-expressing mCherry-KPNB1 with GFP, GFP-TDP-CTF or GFP-TDP-CTF C-terminal deletion constructs were subjected to immunoprecipitation with RFP-Trap magnetic beads. Whole cell lysates (input) and immunoprecipitates (IP) were subjected to western blot analysis using indicated antibodies. Deletion of amino-acids 230-240 in TDP-CTF reduced its binding to KPNB1. FIG. 30C) Lysates from HEK293T cells co-expressing mCherry-KPNB1 with GFP, GFP-TDP-CTF or GFP-TDP-CTF N-terminal deletion constructs were subjected to immunoprecipitation with RFP-Trap magnetic beads. Whole cell lysates (input) and immunoprecipitates (IP) were subjected to western blot analysis using indicated antibodies. Deletion of amino-acids 230-240 in TDP-CTF reduces its binding to KPNB1. TDP-PrLD weakly interacts with KPNB1. FIG. 30D) (Left) Lysates from HEK293T cells co-expressing mCherry-KPNB1 with GFP, GFP-TDP-CTF^WT or GFP-TDP-CTF^Δ230-240 were subjected to immunoprecipitation with RFP-Trap magnetic beads. […] (Right) Quantification of relative GFP levels in IP normalized by GFP levels in input confirm that GFP-TDP-CTF^Δ230-240 interacts less with mCherry-KPNB1. […] FIG. 30F) Western blot analysis and quantification of insoluble GFP-tagged TDP-CTF^WT or TDP-CTF^Δ230-240 in HEK293T cells expressing mCherry or mCherry-KPNB1. […]
# [2] = target: T2, GFP-KPNB1 full-length (FL) (Homo sapiens (Human), UniProt Q14974 1-876); test: co-IP of GFP-tagged KPNB1 truncations, western blot
# T2 construct: the plasmid is GFP-KPNB1 (Euroscarf #P30478); The linker is stated in general for fluorescent protein fusions; also called EGFP-KPNB1; GFP-KPNB1^FL; not shown: GFP/EGFP tag (pEGFP-C1, Clontech)
# Source text: FIG. 21A) Schematic domain structure of KPNB1. KPNB1 is comprised of 19 HEAT repeats (H1-19). RanGTP and importin-α interact with H1-8 and H8-19, respectively. FG-Nups bind to two regions of KPNB1, H5-7 and H14-16. FIG. 21B) Lysates from HEK293T cells expressing GFP, GFP-KPNB1 full-length (FL), N-terminal fragments of KPNB1 (H1-9 . . . H1) or the C-terminal fragment of KPNB1 (H10-19) were subjected to immunoprecipitation with GFP-Trap magnetic beads. Whole cell lysates (input) and immunoprecipitates (IP) were subjected to western blot analysis using indicated antibodies. KPNB1 H1-8, the smallest fully active KPNB1 fragment in reducing TDP-43 aggregation, strongly interacts with FG-Nups and Ran, and weakly with importin-al in comparison with full-length KPNB1. FIG. 21C) (Top) Schematic domain structure of KPNB1 H1-8^mNIS harboring four missense mutations (1178A, F217A, Y255A, I263R) in the nucleoporin-interacting site (NIS). (Bottom) Lysates from HEK293T cells expressing GFP, GFP-KPNB1 H1-8^WT or H1-8^mNIS were subjected to immunoprecipitation with GFP-Trap magnetic beads. Whole cell lysates (input) and immunoprecipitates (IP) were subjected to western blot analysis using indicated antibodies. […] Hoechst staining was used to outline nuclei. Scale bar: 5 μm. […] Statistical analysis was performed using one-way ANOVA and Bonferroni's post hoc test (**p<0.01, ***p<0.001, n=4). FIG. 21F) IF of HEK293T cells co-expressing GFP-(GR)₁₀₀ with an empty plasmid (ctrl), FLAG-tagged KPNB1 H1-8^WT or H1-8^mNIS and stained for endogenous TDP-43. Unlike KPNB1 H1-8^mNIS, KPNB1 H1-8^WT prevents the sequestration of endogenous TDP-43 in cytoplasmic GR aggregates. Arrowheads point to cytoplasmic GR aggregates. Hoechst staining was used to outline nuclei. Scale bar: 5 μm.
# [3] = target: T3, Untagged KPNB1 (Homo sapiens (Human), UniProt Q14974 1-876); test: GFP-Trap IP from HEK293T lysates, western blot
# T3 construct: KPNB1 amplified by PCR and cloned into pEGFP-C1 lacking the GFP tag; also called Wildtype KPNB1
# Source text: FIGS. 29A-29C: Untagged KPNB1 interacts with both the RRM2 and PrLD of TDP-CTF. FIG. 29A) (Left) Lysates from HEK293T cells expressing GFP alone, or untagged KPNB1 with GFP, GFP-TDP-CTF or GFP-TDP43^WT were subjected to immunoprecipitation with GFP-Trap magnetic beads. Whole cell lysates (input) and immunoprecipitates (IP) were subjected to western blot analysis using indicated antibodies. (Right) Quantification of relative KPNB1 levels in IP normalized by KPNB1 levels in input. Statistical analysis was performed using one-way ANOVA and Bonferroni's post hoc test (**p<0.01, ***p<0.001, n=3). […] FIG. 29C) (Left) Lysates from HEK293T cells expressing GFP alone, or untagged KPNB1 with GFP, GFP-TDP-CTF, GFP-TDP-CTF^non-PrLD or GFP-TDP-PrLD were subjected to immunoprecipitation with GFP-Trap magnetic beads. Whole cell lysates (input) and immunoprecipitates (IP) were subjected to western blot analysis using indicated antibodies. (Right) Quantification of relative KPNB1 levels in IP normalized by KPNB1 levels in input. Statistical analysis was performed using one-way ANOVA and Bonferroni's post hoc test (***p<0.001, n=3).
# FIGS. 31A-31C: The PrLD of TDP-43 interacts with FG-Nups and KPNB1. FIG. 31A) Immunofluorescence (IF) of HEK293T cells expressing GFP or GFP-TDP-PrLD and stained for endogenous Nup98 and Nup62. TDP-PrLD forms small cytoplasmic foci positive for Nup62. FIG. 31B) IF of HEK293T cells expressing GFP or GFP-TDP-PrLD and stained for endogenous KPNB1. KPNB1 colocalizes with TDP-PrLD foci in the cytoplasm. Hoechst staining was used to outline nuclei. Scale bar: 5 μm. FIG. 31C) Lysates from HEK293T cells expressing GFP or GFP-TDP-PrLD were subjected to immunoprecipitation with GFP-Trap magnetic beads. Whole cell lysates (input) and immunoprecipitates (IP) were subjected to western blot analysis using indicated antibodies. The PrLD of TDP-43 interacts with Nup62, Nup98 and KPNB1, but not with Ran.
# HEK293T cells were seeded in 6-well plates and transfected for 48 hours. Cells were then lysed in IP Lysis buffer (Fisher) supplemented with a protease inhibitor cocktail (Roche), and were centrifuged at 15000 rpm for 20 minutes at 4° C. A small aliquot of the recovered supernatant was set aside (input).
# T2 sequence (Q14974 other isoform, or with tags, fused parts or gaps): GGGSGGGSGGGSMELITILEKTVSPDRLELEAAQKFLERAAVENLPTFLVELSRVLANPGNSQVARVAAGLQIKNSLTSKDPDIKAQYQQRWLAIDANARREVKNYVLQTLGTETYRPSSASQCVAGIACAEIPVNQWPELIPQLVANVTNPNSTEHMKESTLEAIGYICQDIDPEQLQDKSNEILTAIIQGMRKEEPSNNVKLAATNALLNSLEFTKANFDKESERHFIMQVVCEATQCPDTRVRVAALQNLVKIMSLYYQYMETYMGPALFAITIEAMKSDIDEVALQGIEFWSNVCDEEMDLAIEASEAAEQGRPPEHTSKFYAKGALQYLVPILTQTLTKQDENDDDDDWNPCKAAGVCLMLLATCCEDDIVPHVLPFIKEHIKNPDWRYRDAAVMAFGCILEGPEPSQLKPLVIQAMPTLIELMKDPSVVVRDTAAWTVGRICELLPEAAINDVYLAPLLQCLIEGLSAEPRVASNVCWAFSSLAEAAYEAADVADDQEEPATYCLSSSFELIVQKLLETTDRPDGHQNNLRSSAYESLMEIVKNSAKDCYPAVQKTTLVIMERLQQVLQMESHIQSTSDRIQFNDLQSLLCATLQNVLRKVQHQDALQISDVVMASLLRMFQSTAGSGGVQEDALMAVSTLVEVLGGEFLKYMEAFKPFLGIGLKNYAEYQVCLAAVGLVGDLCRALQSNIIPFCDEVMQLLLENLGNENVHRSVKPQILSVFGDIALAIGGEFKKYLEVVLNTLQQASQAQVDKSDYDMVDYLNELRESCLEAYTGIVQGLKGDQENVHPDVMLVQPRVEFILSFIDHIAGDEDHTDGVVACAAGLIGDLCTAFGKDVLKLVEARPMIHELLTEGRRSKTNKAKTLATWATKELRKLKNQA
# T1 sequence (Q14974 other isoform, or with tags, fused parts or gaps): as above
# T3 sequence (Q14974 whole entry): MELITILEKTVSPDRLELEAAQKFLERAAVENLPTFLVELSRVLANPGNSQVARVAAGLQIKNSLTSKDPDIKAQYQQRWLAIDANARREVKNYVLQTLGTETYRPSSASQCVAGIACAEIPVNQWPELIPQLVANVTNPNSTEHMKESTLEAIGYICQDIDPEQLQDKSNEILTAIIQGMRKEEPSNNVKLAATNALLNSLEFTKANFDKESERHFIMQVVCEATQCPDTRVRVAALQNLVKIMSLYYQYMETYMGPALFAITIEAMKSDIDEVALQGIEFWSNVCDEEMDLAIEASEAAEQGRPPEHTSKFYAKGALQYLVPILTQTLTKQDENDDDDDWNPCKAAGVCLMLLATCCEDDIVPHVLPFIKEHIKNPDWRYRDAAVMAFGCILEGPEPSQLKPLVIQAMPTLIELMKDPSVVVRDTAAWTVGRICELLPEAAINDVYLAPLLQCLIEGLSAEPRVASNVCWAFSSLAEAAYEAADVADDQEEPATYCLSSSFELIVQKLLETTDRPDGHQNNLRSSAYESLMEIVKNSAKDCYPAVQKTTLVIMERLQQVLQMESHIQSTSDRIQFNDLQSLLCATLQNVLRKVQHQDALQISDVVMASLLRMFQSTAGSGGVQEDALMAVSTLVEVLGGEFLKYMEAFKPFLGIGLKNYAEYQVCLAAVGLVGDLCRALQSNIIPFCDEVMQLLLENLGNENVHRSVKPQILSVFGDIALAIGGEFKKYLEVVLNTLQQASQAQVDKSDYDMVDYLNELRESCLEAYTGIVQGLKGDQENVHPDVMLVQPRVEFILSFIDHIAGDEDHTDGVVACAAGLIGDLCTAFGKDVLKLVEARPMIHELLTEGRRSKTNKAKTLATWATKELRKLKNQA
binding result [2],Binder,further results
–,"{GFP}-GGGSGGGSGGGSREFFSQYGDVMDVFIPKPFRAFAFVTFADDQI (other, human, also: GFP tag fused N-terminally, not in chain, (GGGS)3 linker in chain, not shown: GFP/EGFP tag (pEGFP-C1, Clontech)) [GFP-TDP-CTF 208-239]",binding result [1]: binds
binds,"endogenous Nup50 (other, human, UniProt Q9UKX7 1-468, looked up, Detected with anti-Nup50) MAKRNAEKELTDRNWDQEDEAEEVGTFSMASEEVLKNRAIKKAKRRNVGFESDTGGAFKGFKGLVVPSGGGRFSGFGSGAGGKPLEGLSNGNNITSAPPFASAKAAADPKVAFGSLAANGPTTLVDKVSNPKTNGDSQQPSSSGLASSKACVGNAYHKQLAALNCSVRDWIVKHVNTNPLCDLTPIFKDYEKYLANIEQQHGNSGRNSESESNKVAAETQSPSLFGSTKLQQESTFLFHGNKTEDTPDKKMEVASEKKTDPSSLGATSASFNFGKKVDSSVLGSLSSVPLTGFSFSPGNSSLFGKDTTQSKPVSSPFPTKPLEGQAEGDSGECKGGDEEENDEPPKVVVTEVKEEDAFYSKKCKLFYKKDNEFKEKGIGTLHLKPTANQKTQLLVRADTNLGNILLNVLIPPNMPCTRTGKNNVLIVCVPNPPIDEKNATMPVTMLIRVKTSEDADELHKILLEKKDA",–
binds,"endogenous Nup62 (other, human, UniProt P37198 2-522, looked up, Detected with anti-Nup62) SGFNFGGTGAPTGGFTFGTAKTATTTPATGFSFSTSGTGGFNFGAPFQPATSTPSTGLFSLATQTPATQTTGFTFGTATLASGGTGFSLGIGASKLNLSNTAATPAMANPSGFGLGSSNLTNAISSTVTSSQGTAPTGFVFGPSTTSVAPATTSGGFSFTGGSTAQPSGFNIGSAGNSAQPTAPATLPFTPATPAATTAGATQPAAPTPTATITSTGPSLFASIATAPTSSATTGLSLCTPVTTAGAPTAGTQGFSLKAPGAASGTSTTTSTAATATATTTSSSSTTGFALNLKPLAPAGIPSNTAAAVTAPPGPGAAAGAAASSAMTYAQLESLINKWSLELEDQERHFLQQATQVNAWDRTLIENGEKITSLHREVEKVKLDQKRLDQELDFILSQQKELEDLLSPLEELVKEQSGTIYLQHADEEREKTYKLAENIDAQLKRMAQDLKDIIEHLNTSGAPADTSDPLQQICKILNAHMDSLQWIDQNSALLQRKVEEVTKVCEGRRKEQERSFRITFD",–
–,"GFP-TDP-CTF non-PrLD (other, human, not shown: GFP/EGFP tag (pEGFP-C1, Clontech)) GGGSGGGSGGGSREFFSQYGDVMDVFIPKPFRAFAFVTFADDQIAQSLCGEDLIIKGISVHISNAEPKHNSNRQLERSG",binding result [3]: binds

# Reference: patent publication US20240226230A1 (MAYO FOUNDATION FOR MEDICAL EDUCATION AND RESEARCH, published 2024)
